Source: US20160045487A1, “COMPOSITIONS AND METHODS FOR TREATING NEUROPATHY” (CHILDEREN'S MEDICAL CENTER CORPORATION, priority 2013, published 2016)

B1: NRTN: neuturin, GDNF family ligand of GFRα2; purchased from Peprotech (protein, UniProt Q99748 96-197, looked up)
Neurturin: ARLGARPCGLRELEVRVSELGLGYASDETVLFRYCAGACEAAARVYDLGLRRLRQRRRLRRERVRAQPCCRPTAYEDEVSFLDAHSRYHTVHELSARECACV
B2: GDNF: Glial cell line-derived neurotrophic factor, GFRα1 ligand; purchased from Peprotech (protein, UniProt P39905 78-211, looked up)
Glial cell line-derived …: SPDKQMAVLPRRERNRQAAAANPENSRGKGRRGQRGKNRGCVLTAIHLNVTDLGLGYETKEELIFRYCSGSCDAAETTYDKILKNLSRNRRLVSDKVGQACCRPIAFDDDLSFLDDNLVYHILRKHSAKRCGCI

Assays:
[1] = test system: GFRα/RET receptor signaling; assay: Tyrosine hydroxylase promoter luciferase reporter assay in SH-SY5Y-THpGL3 cells; type: cell-based, human; conditions: for maximal effect, luciferase activity: 18 nM ligand alone; for minimal ligand dose necessary to induce luciferase activity above control / luciferase activity versus ligand concentration: ligand alone; for minimal ligand dose necessary to induce luciferase activity above control: 10 minutes, washout, overnight; for luciferase activity versus ligand concentration: luciferase measured 18 hours later
Source text: (§1) One goal of these studies was to determine if XIB4035 could be used for treating SFN in humans. Using the Neuro2A (N2A) murine neuroblastoma cell line, Tokugawa et al. (supra) reported XIB4035 as a competitive agonist for the GDNF receptor GFRα1 that activates the RET receptor. Since populations of DRG sensory neurons express different GFRα receptors, thus making them preferentially responsive to the particular ligands, it was important to determine if XIB4035 was specific to GFRα1 or could act on other family members. Since PSPN has no effect on peripheral sensory neurons, the GFRα1, GFRα2, and GFRα3 receptors were the focus of these studies. The SH-SY5Y, a human neuroblastoma cell line expressing mRNA for GFRα1, GFRα2, and GFRα3, was used to perform two cell-based assays; immunoblots measuring RET phosphorylation and a luciferase reporter assay using the tyrosine hydroxylase (TH) promoter. For the latter two paradigms were used, either overnight treatment immediately followed by luciferase activity measurements or 10 minute treatments followed by washout and overnight incubation prior to measurements. GDNF and ARTN induced robust TH-luciferase activity in a dose dependent manner (FIG. 3E). Because the responses to GDNF and ARTN were more robust, these two factors were chosen for further analysis.
The tyrosine hydroxylase promoter was cloned into the pGL3 basic vector (Promega, Madison, Wis., USA) at the Mlu I and Hind III sites, as previously described (Zwick, supra) (TH-pGL3). Briefly, a 2 Kb promoter region upstream from the transcription initiation site of the rat TH gene was cloned from genomic DNA using the primer sequences, […] and […]. SH-SY5Y cells were co-transfected with the TH-pGL3 and the pBabe-puromycin expression vectors at a molar ratio of 10:1. Cells were selected for stable puromycin resistance at a final concentration of 0.5 μg/ml of puromycin-dihydrochloride. Stable colonies were selected and tested for TH-directed luciferase response to GDNF family ligand stimulation. One stable clone, SH-SY5Y-THpGL3, with good signal-to-noise ratio was selected for use in the experiments.
SH-SY5Y-THpGL3 cells were maintained in DMEM/F12, 5% FBS, and 1% penicillin/streptomycin and plated on collagen coated plates (4 μg/ml). Neuro-2A cells were grown in MEM, 5% FBS, and 1% penicillin/streptomycin. BE(2)-C cells were grown in DMEM/F12 media containing 5% FBS and 1% penicillin/streptomycin. PC-12 cells were maintained in media containing RPMI-1640, 10% horse serum, 5% FBS, and 1% penicillin/streptomycin on collagen coated plates. For luciferase assays, cells were treated for either 10 minutes with washout or overnight with various molecules and assayed for firefly luciferase 16-24 hours post-treatment using the luciferase assay system (Promega, Madison, Wis., USA).

GFRα3/RET = molecular target: T1, GFRα3/RET (UniProt O60609+P35546); assay: RET phosphorylation in N2A cells transfected with GFRα3; type: cell-based, human GFRα3 in murine N2A cells; conditions: 1 nM ARTN
T1 construct: N2A cells (which express RET) transfected with GFRα1 or GFRα3 expression constructs; expressed in transfected cells; host or cells: Neuro2A (N2A) cells; GFRα3 plasmid was a gift from Dr. Milbrandt; RET is endogenous
Procedure: (§2) Since the original report argued that XIB4035 displaces GDNF binding to GFRα1 expressing cells (FIG. 2 in Tokugawa et al., Neurochem Int 42, 81-86 (2003).), potentially ARTN, on TH-luciferase activity and Ret phosphorylation. […] In this experiment, cells were treated with GDNF or ARTN with or without XIB4035 for 10 minutes and cell lysates were either collected immediately or treatment was washed out and replaced with growth media for 30, 60, or 120 minutes. […] Therefore, we tested cells expressing only one GFRα using either N2A cells (which express RET) transfected with GFRα1 or GFRα3 expression constructs, or B(E)2-C cells, which express only GFRα2 together with RET. […] The GFRα1 or GFRα3 transfected N2A cells were then treated with XIB4035 alone, the appropriate ligand for the expressed receptor alone, or XIB4035 and ligand in combination for 10 minutes, and collected lysates immediately after treatment or 60 minutes after washout. […] Similar results were obtained with GFRα2 and NRTN using B(E)2-C cells (FIG. 8). Thus, XIB4035 is a positive modulator of signaling by GDNF family ligands and their receptors, not an agonist for GFRα1 as previously reported.
(§3) For phosphorylated Ret immunoblot experiments, cells were treated with various combinations of molecules for 10 minutes and either collected immediately or had treatment washed out and returned to control treatment media for the times indicated prior to cell collection. Lysates were collected in buffer containing: 50 mM Tris-HCL, 1% TX-100, 0.25% Deoxycholic acid, 150 mM sodium chloride, 1 mM EDTA, 0.1 mM sodium fluoride, 0.1 mM sodium pyrophosphate, 0.02 mM sodium orthovanadate, and protease inhibitors Immunoblots were blocked in 5% bovine serum albumin in tris-buffered saline+0.2% Tween 20+0.1 mM sodium fluoride, 0.1 mM sodium pyrophosphate, and 0.02 mM sodium orthovanadate and probed in blocking solution using anti-phospotyrosine (4G10) mouse monoclonal antibody (1:2000; EMD Milipore Corp., Billerica, Mass.). […]

RET [2] = molecular target: T2, RET (Mus musculus, UniProt P35546); assay: RET phosphorylation in control transfected (mGFP) N2A cells; type: cell-based, murine; conditions: 2 nM GDNF or 1 nM ARTN
T2 construct: endogenous in cells
Procedure: as §2, with “reported. […]” for “reported.”

GFRα2/RET = molecular target: T3, GFRα2/RET (Homo sapiens, UniProt O00451+P07949); assay: NRTN/GFRα2-induced RET phosphorylation in B(E)2-C cells; type: cell-based; conditions: 2 nM NRTN alone, 10 minutes, then 60 minutes growth medium
T3 construct: B(E)2-C cells, which express only GFRα2 together with RET; endogenous in cells; host or cells: B(E)2-C / BE(2)-C cells
Procedure: B(E)2-C cells, which express GFRα2, were treated under different conditions (no treatment, 2 nM NRTN, or 2 nM NRTN with 20 μM XIB4035) for 10 minutes. Cells were either lysed immediately or after incubation in growth medium for an additional 60 minutes.
as §2, with “Thus, XIB4035 is a positive modulator of signaling by GDNF family ligands and their receptors, not an agonist for GFRα1 as previously reported.” left out

RET [3] = molecular target: T4, RET (Homo sapiens, UniProt P07949+P56159); assay: RET phosphorylation phospho-tyrosine Western blot in SH-SY5Y cells; type: cell-based; conditions: 2 nM GDNF, two or 10 minutes
T4 construct: endogenous in cells; host or cells: SH-SY5Y (SH-SY5Y-THpGL3) human neuroblastoma cells
Source text: as §1
Since the original report argued that XIB4035 displaces GDNF binding to GFRα1 expressing cells (FIG. 2 in Tokugawa et al., Neurochem Int 42, 81-86 (2003).), potentially ARTN, on TH-luciferase activity and Ret phosphorylation. […] In this experiment, cells were treated with GDNF or ARTN with or without XIB4035 for 10 minutes and cell lysates were either collected immediately or treatment was washed out and replaced with growth media for 30, 60, or 120 minutes. […] Therefore, we tested cells expressing only one GFRα using either N2A cells (which express RET) transfected with GFRα1 or GFRα3 expression constructs, or B(E)2-C cells, which express only GFRα2 together with RET. […]

GFRα1/RET = molecular target: T5, GFRα1/RET (UniProt P35546+Q62997); assay: RET phosphorylation in N2A cells transfected with GFRα1; type: cell-based, rat GFRα1 in murine N2A cells; conditions: 2 nM GDNF
T5 construct: N2A cells (which express RET) transfected with GFRα1 or GFRα3 expression constructs; expressed in transfected cells; host or cells: Neuro2A (N2A) cells; GFRα1 plasmid was a gift from Dr. Milbrandt; RET is endogenous
Procedure: as §2, §3

T2 sequence (P35546 29-1115): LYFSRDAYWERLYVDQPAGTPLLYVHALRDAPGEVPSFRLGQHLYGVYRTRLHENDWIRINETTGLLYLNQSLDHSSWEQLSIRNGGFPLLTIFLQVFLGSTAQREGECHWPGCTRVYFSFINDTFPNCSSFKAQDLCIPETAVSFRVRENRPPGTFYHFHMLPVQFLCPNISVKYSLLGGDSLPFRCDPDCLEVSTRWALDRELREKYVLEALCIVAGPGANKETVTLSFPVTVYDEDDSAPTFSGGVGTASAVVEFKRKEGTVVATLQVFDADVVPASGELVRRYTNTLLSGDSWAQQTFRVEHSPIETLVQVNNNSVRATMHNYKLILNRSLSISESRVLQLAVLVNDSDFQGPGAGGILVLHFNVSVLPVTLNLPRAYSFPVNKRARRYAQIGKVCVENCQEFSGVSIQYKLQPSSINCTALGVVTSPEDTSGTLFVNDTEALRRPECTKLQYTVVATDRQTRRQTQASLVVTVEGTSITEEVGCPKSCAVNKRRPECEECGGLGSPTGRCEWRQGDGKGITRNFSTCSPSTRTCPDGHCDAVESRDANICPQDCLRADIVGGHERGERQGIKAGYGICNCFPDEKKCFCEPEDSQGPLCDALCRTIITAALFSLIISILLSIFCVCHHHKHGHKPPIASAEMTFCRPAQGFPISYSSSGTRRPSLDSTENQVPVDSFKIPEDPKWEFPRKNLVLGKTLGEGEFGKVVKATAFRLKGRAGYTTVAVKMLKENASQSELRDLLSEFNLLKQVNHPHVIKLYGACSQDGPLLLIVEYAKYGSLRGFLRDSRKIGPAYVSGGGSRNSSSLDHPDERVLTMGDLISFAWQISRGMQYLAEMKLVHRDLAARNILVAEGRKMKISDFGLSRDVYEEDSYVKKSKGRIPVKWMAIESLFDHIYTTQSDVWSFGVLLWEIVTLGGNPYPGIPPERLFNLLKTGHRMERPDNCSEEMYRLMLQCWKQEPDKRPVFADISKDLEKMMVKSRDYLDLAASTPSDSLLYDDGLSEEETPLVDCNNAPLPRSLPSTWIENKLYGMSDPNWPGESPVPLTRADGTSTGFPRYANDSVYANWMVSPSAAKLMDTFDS
T1 sequence (O60609 32-374 limits assumed): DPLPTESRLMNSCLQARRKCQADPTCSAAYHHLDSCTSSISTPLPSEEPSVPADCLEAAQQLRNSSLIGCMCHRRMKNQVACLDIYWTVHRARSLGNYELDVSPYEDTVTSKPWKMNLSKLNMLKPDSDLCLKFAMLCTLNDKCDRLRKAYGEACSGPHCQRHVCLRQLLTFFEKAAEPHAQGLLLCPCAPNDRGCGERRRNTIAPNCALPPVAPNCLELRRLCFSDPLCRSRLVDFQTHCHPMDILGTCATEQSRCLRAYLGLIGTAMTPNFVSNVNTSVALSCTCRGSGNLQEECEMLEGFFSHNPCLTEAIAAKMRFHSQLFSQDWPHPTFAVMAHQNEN
T1 sequence (P35546 29-1115): as the sequence (P35546 29-1115) above
T4 sequence (P07949 29-1114): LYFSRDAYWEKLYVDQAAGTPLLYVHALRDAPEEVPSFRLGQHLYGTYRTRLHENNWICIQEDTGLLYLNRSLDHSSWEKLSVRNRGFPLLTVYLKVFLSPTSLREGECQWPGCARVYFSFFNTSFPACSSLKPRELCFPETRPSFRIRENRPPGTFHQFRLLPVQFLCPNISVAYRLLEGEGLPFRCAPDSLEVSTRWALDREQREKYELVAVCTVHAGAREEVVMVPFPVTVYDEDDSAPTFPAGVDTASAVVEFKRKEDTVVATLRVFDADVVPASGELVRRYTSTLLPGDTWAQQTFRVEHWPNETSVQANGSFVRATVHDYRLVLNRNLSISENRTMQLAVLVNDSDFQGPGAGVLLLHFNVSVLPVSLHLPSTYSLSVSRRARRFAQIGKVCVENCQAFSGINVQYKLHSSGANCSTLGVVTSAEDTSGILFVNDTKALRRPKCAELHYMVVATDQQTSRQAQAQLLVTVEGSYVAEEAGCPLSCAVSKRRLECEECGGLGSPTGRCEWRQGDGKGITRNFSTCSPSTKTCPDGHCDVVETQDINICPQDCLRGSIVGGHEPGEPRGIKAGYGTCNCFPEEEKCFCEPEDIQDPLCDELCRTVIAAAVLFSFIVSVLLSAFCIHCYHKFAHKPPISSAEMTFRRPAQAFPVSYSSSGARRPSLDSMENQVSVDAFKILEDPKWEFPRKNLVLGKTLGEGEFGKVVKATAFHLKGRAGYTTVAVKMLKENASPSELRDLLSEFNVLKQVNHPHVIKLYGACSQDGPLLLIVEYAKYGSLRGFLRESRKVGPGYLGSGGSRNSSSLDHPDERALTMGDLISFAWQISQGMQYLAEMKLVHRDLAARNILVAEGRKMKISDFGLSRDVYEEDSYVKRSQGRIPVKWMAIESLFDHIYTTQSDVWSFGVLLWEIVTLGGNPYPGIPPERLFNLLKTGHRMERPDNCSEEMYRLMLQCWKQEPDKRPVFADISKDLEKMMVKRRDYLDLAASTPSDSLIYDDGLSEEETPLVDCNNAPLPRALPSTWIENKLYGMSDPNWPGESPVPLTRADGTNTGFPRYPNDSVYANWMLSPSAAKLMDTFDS
T4 sequence (P56159 25-429 limits assumed): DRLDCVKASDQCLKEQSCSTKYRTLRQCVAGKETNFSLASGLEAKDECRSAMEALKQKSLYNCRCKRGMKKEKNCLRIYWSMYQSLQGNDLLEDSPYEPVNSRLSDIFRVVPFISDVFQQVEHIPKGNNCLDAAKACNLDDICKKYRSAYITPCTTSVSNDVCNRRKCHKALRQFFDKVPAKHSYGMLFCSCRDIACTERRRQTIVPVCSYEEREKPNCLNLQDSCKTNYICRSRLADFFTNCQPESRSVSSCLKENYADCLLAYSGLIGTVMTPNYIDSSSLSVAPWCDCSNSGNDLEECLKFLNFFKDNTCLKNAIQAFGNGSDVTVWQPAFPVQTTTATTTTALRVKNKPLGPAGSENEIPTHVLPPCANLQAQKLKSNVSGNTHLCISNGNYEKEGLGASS
T5 sequence (Q62997 25-430 limits assumed): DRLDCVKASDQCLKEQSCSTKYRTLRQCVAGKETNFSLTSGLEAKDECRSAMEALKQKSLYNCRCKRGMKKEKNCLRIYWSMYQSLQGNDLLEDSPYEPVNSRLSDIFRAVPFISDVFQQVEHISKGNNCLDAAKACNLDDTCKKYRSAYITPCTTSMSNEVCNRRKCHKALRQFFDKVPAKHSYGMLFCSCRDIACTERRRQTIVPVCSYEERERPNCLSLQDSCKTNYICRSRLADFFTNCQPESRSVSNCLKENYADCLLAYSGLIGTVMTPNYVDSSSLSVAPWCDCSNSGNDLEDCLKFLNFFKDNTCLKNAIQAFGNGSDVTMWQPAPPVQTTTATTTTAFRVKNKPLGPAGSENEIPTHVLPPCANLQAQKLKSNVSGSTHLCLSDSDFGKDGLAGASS
T5 sequence (P35546 29-1115): as the sequence (P35546 29-1115) above
T3 sequence (O00451 22-444 limits assumed): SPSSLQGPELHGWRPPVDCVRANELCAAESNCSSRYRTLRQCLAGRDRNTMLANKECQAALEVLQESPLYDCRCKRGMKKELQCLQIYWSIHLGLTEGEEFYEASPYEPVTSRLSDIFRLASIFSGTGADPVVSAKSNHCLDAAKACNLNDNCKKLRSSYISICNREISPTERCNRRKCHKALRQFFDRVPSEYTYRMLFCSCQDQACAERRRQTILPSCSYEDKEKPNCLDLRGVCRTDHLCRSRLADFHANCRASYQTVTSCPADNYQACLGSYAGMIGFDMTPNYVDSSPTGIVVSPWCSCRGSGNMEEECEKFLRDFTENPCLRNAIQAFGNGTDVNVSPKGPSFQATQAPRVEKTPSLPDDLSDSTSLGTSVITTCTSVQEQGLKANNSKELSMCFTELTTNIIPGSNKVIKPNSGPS
T3 sequence (P07949 29-1114): as the sequence (P07949 29-1114) above

Row | Molecule | maximal effect, luciferase activity [1] | minimal ligand dose necessary to induce luciferase activity above control [1] | luciferase activity versus ligand concentration [1] | RET phosphorylation (GFRα3/RET) | RET phosphorylation (RET [2]) | RET phosphorylation at 60 min (GFRα2/RET) | TH promoter activity (luciferase) ([1]; 2 nM GDNF, 10 minutes then overnight in regular medium, or overnight) | RET phosphorylation (RET [3]) | RET phosphorylation (GFRα1/RET)
1 | ARTN: artemin, GDNF family ligand of GFRα3; purchased from Peprotech | 2.78±0.44 fold over control | 75 pM | dose-dependent increase | induced RET phosphorylation | No RET phosphorylation was detected | – | – | – | –
2 | B1 | – | – | dose-dependent increase | – | – | not detectable | – | – | –
3 | B2 | 2.76±0.32 fold over control | 75 pM | dose-dependent increase | – | No RET phosphorylation was detected | – | increases TH promoter activity | induced | induced RET phosphorylation
